For test [1], the target named is T1, CHI3L1-6his(pcDNA3.1，在293T细胞中过表达的完整人CHI3L1) (human, UniProt P36222 22-383).
T1 construct: whole, on cells; CBA / immunofluorescence target: transfected, acetone-fixed 293T cells; also called 完整CHI3L1序列; 过表达CHI3L1蛋白的细胞; not shown: 6his tag
The test can be described thus: CBA, immunofluorescence on acetone-fixed 293T cells overexpressing CHI3L1-6his.

Test [2] deals with T2, Q CHI3L1-329-346-6his(缺失329-346片段的CHI3L1构建体) (human, UniProt P36222 22-383).
T2 construct: Deletion construct, overexpressed in 293T cells from pcDNA3.1, acetone-fixed; not shown: 6his tag
The experiment in a line: immunofluorescence on transfected, acetone-fixed 293T cells.

In test [3] the target is T1, CHI3L1-6his(pcDNA3.1，在293T细胞中过表达的完整人CHI3 …. The description is as above.

B1: 人CHI3L1单克隆抗体1D7(杂交瘤细胞1D7-C5-D5培养上清) (antibody, V domains shown)
VH: EVQLLETGGGLVQPGGSRGLSCEGSGFTFSGFWMSWVRQTPGKTLEWIGDINSDGSTINYAPSIKDRFTIFRDNDKSTLYLQMSNVRSEDTATYFCMRYKGAHWGQGTLVTVSA
VL: not shown
notes: Tested as culture supernatant; also called 1D7杂交瘤细胞上清; 阳性杂交瘤细胞上清
Take B1: the binding result in test [1] was “binds”.

B2: 重组单克隆抗体1D7(1D7m2a + 1D7mk，293T细胞上清) (antibody, V domains shown)
VH: EVQLLETGGGLVQPGGSRGLSCEGSGFTFSGFWMSWVRQTPGKTLEWIGDINSDGSTINYAPSIKDRFTIFRDNDKSTLYLQMSNVRSEDTATYFCMRYKGAHWGQGTLVTVSA
VL: not shown
notes: VH cloned into pFUSE-CHIg-m2a (mouse IgG2a constant region of the vector), VL into pFUSE2ss-CLIg-mk (mouse kappa); Tested as 293T culture supernatant; also called 重组1D7单克隆抗体; 重组单克隆细胞上清
Consider B2, for which the figures for the binding result in test [2] and in test [3] were “no binding” and “binds”, respectively.

(Values after patent CN115894698A (SHAANXI MYBIOTECH CO LTD, dated 2023).)
